Data from ChEMBL document CHEMBL1908105, “UDP-glucuronosyltransferases and clinical drug-drug interactions” (Pharmacol Ther, 2005).

Assays:
[1] = substrate: CN1CC[C@]23c4c5ccc(O[C@@H]6O[C@H](C(=O)O)[C@@H](O)[C@H](O)[C@H]6O)c4O[C@H]2[C@@H](O)C=C[C@H]3[C@H]1C5; test: (§1) Drug glucuronidation reaction catalyzed by human recombinant UGT1A9
[2] = substrate: CCC[S+]([O-])CCCN(CC)CC(O)COc1ccc(C#N)cc1; test: as §1
[3] = substrate: CC(=O)Nc1ccc(O)cc1; test: as §1
[4] = substrate: O=C(c1ccc(OCCN2CCCCC2)cc1)c1c(-c2ccc(O)cc2)sc2cc(O[C@@H]3O[C@H](C(=O)O)[C@@H](O)[C@H](O)[C@H]3O)ccc12; test: as §1
[5] = substrate: COc1c(C)c2c(c(O)c1C/C=C(\C)CCC(=O)O)C(=O)OC2; test: as §1
[6] = substrate: Cc1ccc(C(=O)c2cc(O)c(O)c([N+](=O)[O-])c2)cc1; test: as §1
[7] = substrate: O=C(c1ccc(OCCN2CCCCC2)cc1)c1c(-c2ccc(O[C@H]3O[C@H](C(=O)O)[C@@H](O)[C@H](O)[C@H]3O)cc2)sc2cc(O)ccc12; test: as §1
[8] = substrate: CCc1c2c(nc3ccc(O)cc13)-c1cc3c(c(=O)n1C2)COC(=O)[C@]3(O)CC; test: as §1
[9] = substrate: CN1CC[C@H](c2c(O)cc(O)c3c(=O)cc(-c4ccccc4Cl)oc23)[C@H](O)C1; test: as §1
[10] = substrate: CCN(CC)C(=O)/C(C#N)=C/c1cc(O)c(O)c([N+](=O)[O-])c1; test: as §1
not read [11] = substrate: CC(C)c1cccc(C(C)C)c1O; test: not read
not read [12] = substrate: O=C1Nc2ccc(Cl)cc2C(c2ccccc2)=N[C@@H]1O; test: not read
[13] = substrate: CN1CC[C@]23c4c5ccc(O[C@@H]6O[C@H](C(=O)O)[C@@H](O)[C@H](O)[C@H]6O)c4O[C@H]2[C@@H](O)C=C[C@H]3[C@H]1C5; test: (§2) Drug glucuronidation reaction catalyzed by human recombinant UGT1A8
[14] = substrate: O=C(c1ccc(OCCN2CCCCC2)cc1)c1c(-c2ccc(O)cc2)sc2cc(O[C@@H]3O[C@H](C(=O)O)[C@@H](O)[C@H](O)[C@H]3O)ccc12; test: as §2
[15] = substrate: COc1c(C)c2c(c(O)c1C/C=C(\C)CCC(=O)O)C(=O)OC2; test: as §2
[16] = substrate: O=C(c1ccc(OCCN2CCCCC2)cc1)c1c(-c2ccc(O[C@H]3O[C@H](C(=O)O)[C@@H](O)[C@H](O)[C@H]3O)cc2)sc2cc(O)ccc12; test: as §2
[17] = substrate: O=C1CC[C@@]2(O)[C@H]3Cc4ccc(O)c5c4[C@@]2(CCN3CC2CC2)[C@H]1O5; test: as §2
[18] = substrate: CN1CC[C@]23c4c5ccc(O[C@@H]6O[C@H](C(=O)O)[C@@H](O)[C@H](O)[C@H]6O)c4O[C@H]2[C@@H](O)C=C[C@H]3[C@H]1C5; test: (§3) Drug glucuronidation reaction catalyzed by human recombinant UGT1A10
[19] = substrate: O=C(c1ccc(OCCN2CCCCC2)cc1)c1c(-c2ccc(O[C@H]3O[C@H](C(=O)O)[C@@H](O)[C@H](O)[C@H]3O)cc2)sc2cc(O)ccc12; test: as §3

B1: UDP-glucuronosyltransferase 1A9 (Homo sapiens) (protein)
chain: MACTGWTSPLPLCVCLLLTCGFAEAGKLLVVPMDGSHWFTMRSVVEKLILRGHEVVVVMPEVSWQLGRSLNCTVKTYSTSYTLEDLDREFKAFAHAQWKAQVRSIYSLLMGSYNDIFDLFFSNCRSLFKDKKLVEYLKESSFDAVFLDPFDNCGLIVAKYFSLPSVVFARGILCHYLEEGAQCPAPLSYVPRILLGFSDAMTFKERVRNHIMHLEEHLLCHRFFKNALEIASEILQTPVTEYDLYSHTSIWLLRTDFVLDYPKPVMPNMIFIGGINCHQGKPLPMEFEAYINASGEHGIVVFSLGSMVSEIPEKKAMAIADALGKIPQTVLWRYTGTRPSNLANNTILVKWLPQNDLLGHPMTRAFITHAGSHGVYESICNGVPMVMMPLFGDQMDNAKRMETKGAGVTLNVLEMTSEDLENALKAVINDKSYKENIMRLSSLHKDRPVEPLDLAVFWVEFVMRHKGAPHLRPAAHDLTWYQYHSLDVIGFLLAVVLTVAFITFKCCAYGYRKCLGKKGRVKKAHKSKTH
In the case of B1, the Km [1] is reported as 37400 µM, the Vmax [1] is reported as 3.2e-05 µmol/min/mg and the Km [2] is reported as 1060 µM. The Vmax [2] was 9.2e-05 µmol/min/mg, the Km [3] was 20900 µM and the Vmax [3] was 0.0063 µmol/min/mg. It also gave a Km [4] of 25 µM, a Vmax [4] of 0.00032 µmol/min/mg and a Km [5] of 291 µM. It also gave a Vmax [5] of 0.00838 µmol/min/mg, a Km [6] of 66 µM and a Vmax [6] of 0.00048 µmol/min/mg. It also gave a Km [7] of 13 µM, a Vmax [7] of 0.00025 µmol/min/mg and a Km [8] of 13 µM. For the same protein, the Vmax [8] was 2e-05 µmol/min/mg, the Km [9] was 37 µM and the Vmax [9] was 5.6e-05 µmol/min/mg. For the same protein, the Km [10] was 10 µM, the Vmax [10] was 0.0018 µmol/min/mg and the Km (not read [11]) was 37 µM. The Vmax (not read [11]) was 0.0028 µmol/min/mg, the Km (not read [12]) was 12 µM and the Vmax (not read [12]) was 3e-06 µmol/min/mg.

B2: UDP-glucuronosyltransferase 1A8 (Homo sapiens) (protein)
chain: MARTGWTSPIPLCVSLLLTCGFAEAGKLLVVPMDGSHWFTMQSVVEKLILRGHEVVVVMPEVSWQLGKSLNCTVKTYSTSYTLEDLDREFMDFADAQWKAQVRSLFSLFLSSSNGFFNLFFSHCRSLFNDRKLVEYLKESSFDAVFLDPFDACGLIVAKYFSLPSVVFARGIACHYLEEGAQCPAPLSYVPRILLGFSDAMTFKERVRNHIMHLEEHLFCQYFSKNALEIASEILQTPVTAYDLYSHTSIWLLRTDFVLDYPKPVMPNMIFIGGINCHQGKPLPMEFEAYINASGEHGIVVFSLGSMVSEIPEKKAMAIADALGKIPQTVLWRYTGTRPSNLANNTILVKWLPQNDLLGHPMTRAFITHAGSHGVYESICNGVPMVMMPLFGDQMDNAKRMETKGAGVTLNVLEMTSEDLENALKAVINDKSYKENIMRLSSLHKDRPVEPLDLAVFWVEFVMRHKGAPHLRPAAHDLTWYQYHSLDVIGFLLAVVLTVAFITFKCCAYGYRKCLGKKGRVKKAHKSKTH
Work on B2 yielded a Km [13] of 26000 µM, a Vmax [13] of 1.3e-05 µmol/min/mg and a Km [14] of 8 µM. It also gave a Vmax [14] of 0.00061 µmol/min/mg, a Km [15] of 298 µM and a Vmax [15] of 0.0326 µmol/min/mg. For the same protein, the Km [16] was 59 µM, the Vmax [16] was 0.002 µmol/min/mg and the Km [17] was 1550 µM. It also gave a Vmax [17] of 0.000495 µmol/min/mg, a Km (not read [11]) of 412 µM and a Vmax (not read [11]) of 0.00382 µmol/min/mg.

B3: UDP-glucuronosyltransferase 1A10 (Homo sapiens) (protein)
chain: MARAGWTSPVPLCVCLLLTCGFAEAGKLLVVPMDGSHWFTMQSVVEKLILRGHEVVVVMPEVSWQLERSLNCTVKTYSTSYTLEDQNREFMVFAHAQWKAQAQSIFSLLMSSSSGFLDLFFSHCRSLFNDRKLVEYLKESSFDAVFLDPFDTCGLIVAKYFSLPSVVFTRGIFCHHLEEGAQCPAPLSYVPNDLLGFSDAMTFKERVWNHIVHLEDHLFCQYLFRNALEIASEILQTPVTAYDLYSHTSIWLLRTDFVLDYPKPVMPNMIFIGGINCHQGKPLPMEFEAYINASGEHGIVVFSLGSMVSEIPEKKAMAIADALGKIPQTVLWRYTGTRPSNLANNTILVKWLPQNDLLGHPMTRAFITHAGSHGVYESICNGVPMVMMPLFGDQMDNAKRMETKGAGVTLNVLEMTSEDLENALKAVINDKSYKENIMRLSSLHKDRPVEPLDLAVFWVEFVMRHKGAPHLRPAAHDLTWYQYHSLDVIGFLLAVVLTVAFITFKCCAYGYRKCLGKKGRVKKAHKSKTH
B3 showed a Km [18] of 12600 µM, a Vmax [18] of 0.000629 µmol/min/mg and a Km [19] of 5 µM. It also gave a Vmax [19] of 0.00055 µmol/min/mg.
